The target in assay [1] is T1, rHuman P-Cadherin/Fc Chimera, CF (R&D Systems Cat#861-PC) (human, UniProt P22223 108-654).
T1 construct: Bought from R&D Systems; not shown: Fc of the bought chimera
Description: MSD multispot ECL, antigen spotted on plate, Fab 11 nM; blank spot 212.

Assay [2] deals with T2, rHuman Notch-1/Fc Chimera, CF (R&D Systems Cat#3647-TK) (human, UniProt P46531 19-526).
T2 construct: Bought from R&D Systems; not shown: Fc of the bought chimera
Described as above.

For assay [3], the target named is T3, rHuman Erythropoietin R/Fc Chimera, CF (R&D Systems Cat#963-ER) (human, UniProt P19235 25-250).
T3 construct: Bought from R&D Systems; also called EPO R/Fc; Epo R/Fc chimera; not shown: Fc of the bought chimera
T3 sequence (looked up): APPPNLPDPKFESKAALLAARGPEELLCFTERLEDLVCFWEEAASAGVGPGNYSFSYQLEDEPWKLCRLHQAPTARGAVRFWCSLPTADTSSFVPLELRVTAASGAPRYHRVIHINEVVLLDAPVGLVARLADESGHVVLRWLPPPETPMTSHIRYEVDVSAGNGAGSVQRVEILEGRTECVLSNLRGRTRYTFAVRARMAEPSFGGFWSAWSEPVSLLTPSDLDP
The description is as above.

Assay [4] has as its target T4, rHuman IGF-1 sR, (IGF-1 sR), CF (R&D Systems Cat#391-GR) (human, UniProt P08069 31-932).
T4 construct: Bought from R&D Systems and called a soluble receptor; also called insulin-like growth factor-1 soluble receptor
Described as above.

Assay [5] has as its target T5, rHuman CD44/Fc Chimera, CF (R&D Systems Cat#3660-CD) (human, UniProt P16070 21-220).
T5 construct: Bought from R&D Systems; not shown: Fc of the bought chimera
Described as above.

The target of assay [6] is T6, rHuman ErbB2/Fc Chimera, CF (R&D Systems Cat#1129-ER) (human, UniProt P04626 23-652).
T6 construct: Bought from R&D Systems; also called human epidermal growth factor 2 receptor (ErbB2); not shown: Fc of the bought chimera
Described as above.

Assay [7] has as its target T7, Recombinant Human DLL4 (R&D Systems Cat#1506-D4/CF) (human, UniProt Q9NR61 27-524).
T7 construct: Bought from R&D Systems; also called rHuman DLL4; delta-like protein 4
Described as above.

Assay [8] concerns the target T8, rHuman EGF R/Fc Chimera, CF (R&D Systems Cat#344-ER) (human, UniProt P00533 25-645).
T8 construct: Bought from R&D Systems; also called epidermal growth factor receptor (EGF R); not shown: Fc of the bought chimera
The description is as above.

Assay [9] deals with T9, Recombinant Human DLL4 (R&D Systems Cat#1506-D4/CF) (human, UniProt Q9NR61 27-524).
T9 construct: Bought recombinant protein; also called rHuman DLL4; delta-like protein 4
Put plainly: Multispot ECL (MSD), antigen spotted on plate, Fab 31.3 nM; blank spot 250.

For assay [10], the target named is T10, rHuman Erythropoietin R/Fc Chimera, CF (R&D Systems Cat#963-ER) (human, UniProt P19235 25-250).
T10 construct: Bought recombinant protein; also called EPO R/Fc; Epo R; Fc part of the bought chimera not given
T10 sequence (looked up): T3 sequence (looked up)
Described as above.

For assay [11], the target named is T11, rHuman IGF-1 sR, CF (R&D Systems Cat#391-GR) (human, UniProt P08069 31-932).
T11 construct: Bought recombinant soluble receptor; also called insulin-like growth factor-1 soluble receptor
The assay is described as above.

Assay [12] addresses T12, rHuman Notch-1/Fc Chimera, CF (R&D Systems Cat#3647-TK) (human, UniProt P46531 19-526).
T12 construct: Bought recombinant protein; Fc part of the bought chimera not given
The description is as above.

Assay [13] addresses T13, rHuman HGF R/c-MET/Fc Chimera, CF (R&D Systems Cat#358-MT/CF) (human, UniProt P08581 25-932).
T13 construct: Bought recombinant protein; also called HGF R/Fc; Fc part of the bought chimera not given
Description: ECL multispot (MSD) assay, spotted antigen; Fab 20.00 (head prints uM).

Assay [14] has as its target T14, rHuman Erythropoietin R/Fc Chimera, CF (R&D Systems Cat#963-ER) (human, UniProt P19235 25-250).
T14 construct: Bought recombinant protein; also called EPO R; EPO R/Fc; Fc part of the bought chimera not given
T14 sequence (looked up): T3 sequence (looked up)
The description is as above.

In assay [15] the target is T15, rHuman ErbB2/Fc Chimera, CF (R&D Systems Cat#1129-ER) (human, UniProt P04626 23-652).
T15 construct: Bought recombinant protein; Fc part of the bought chimera not given
Described as above.

Assay [16] concerns the target T16, rHuman P-Cadherin/Fc Chimera, CF (R&D Systems Cat#861-PC) (human, UniProt P22223 108-654).
T16 construct: Bought recombinant protein; Fc part of the bought chimera not given
Described as above.

The target in assay [17] is T17, rHuman EGF R/Fc Chimera, CF (R&D Systems Cat#344-ER) (human, UniProt P00533 25-645).
T17 construct: Bought recombinant protein; Fc part of the bought chimera not given
The assay is described as above.

For assay [18], the target named is T18, rHuman IGF-1 sR, CF (R&D Systems Cat#391-GR) (human, UniProt P08069 31-932).
T18 construct: Bought soluble receptor; The column head prints only 'IGF-1'; also called insulin-like growth factor-1 soluble receptor
Described as above.

Assay [19] deals with T19, rHuman Notch-1/Fc Chimera, CF (R&D Systems Cat#3647-TK) (human, UniProt P46531 19-526).
T19 construct: Bought recombinant protein; Fc part of the bought chimera not given
Described as above.

T13 sequence (P08581 25-932, change not shown): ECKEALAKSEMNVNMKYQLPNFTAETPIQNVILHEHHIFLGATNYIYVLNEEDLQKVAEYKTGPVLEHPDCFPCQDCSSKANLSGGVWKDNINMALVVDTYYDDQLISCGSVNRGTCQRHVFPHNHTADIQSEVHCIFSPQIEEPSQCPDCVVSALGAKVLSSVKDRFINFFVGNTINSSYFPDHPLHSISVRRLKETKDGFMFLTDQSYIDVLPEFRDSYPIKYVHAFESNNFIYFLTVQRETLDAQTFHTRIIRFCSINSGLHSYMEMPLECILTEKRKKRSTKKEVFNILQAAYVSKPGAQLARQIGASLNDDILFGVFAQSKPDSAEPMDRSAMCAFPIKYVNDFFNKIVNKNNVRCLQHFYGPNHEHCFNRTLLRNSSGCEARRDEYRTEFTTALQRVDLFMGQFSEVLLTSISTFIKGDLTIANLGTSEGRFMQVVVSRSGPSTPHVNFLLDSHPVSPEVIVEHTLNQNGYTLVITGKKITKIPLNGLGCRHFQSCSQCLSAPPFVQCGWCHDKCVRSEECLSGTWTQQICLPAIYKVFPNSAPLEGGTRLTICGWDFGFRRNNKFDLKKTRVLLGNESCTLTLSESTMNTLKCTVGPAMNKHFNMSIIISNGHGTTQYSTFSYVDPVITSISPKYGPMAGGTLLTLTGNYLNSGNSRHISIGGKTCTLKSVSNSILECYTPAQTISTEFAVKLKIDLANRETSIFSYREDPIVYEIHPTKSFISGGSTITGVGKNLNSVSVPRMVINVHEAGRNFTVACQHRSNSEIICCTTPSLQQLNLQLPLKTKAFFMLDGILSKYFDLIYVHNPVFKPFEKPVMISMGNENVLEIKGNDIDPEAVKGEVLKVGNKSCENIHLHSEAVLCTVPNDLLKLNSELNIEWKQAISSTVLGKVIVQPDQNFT

B1: Fab VH1-46_IGHD3-10*01_IGHJ4*01 & B3_IGKJ1*01 (Fab, V domains shown)
VH: QVQLVQSGAEVKKPGASVKVSCKASGYTFTSYYMHWVRQAPGQGLEWMGIINPSGGSTSYAQKFQGRVTMTRDTSTSTVYMELSSLRSEDTAVYYCAREYYYGSGSYYNDYFDYWGQGTLVTVSS
VL: not shown
notes: Tested as a Fab made in E. coli; VH was cloned into Plasmid A (CH1 constant region, His6 and Flag tags); The kappa VL was cloned into Plasmid C (kappa CL)
As to B1, the ECL signal in assay [1] is 270; in assay [2], 404; in assay [3] it was 1820; in assay [4], 289; in assay [5], 296; in [6], 216. The ECL signal in [7] was determined as 254; in assay [8] it was 201.

B2: Fab VH1-46_IGHD6-13*01_IGHJ4*01 & B3_IGKJ1*01 (Fab, V domains shown)
VH: QVQLVQSGAEVKKPGASVKVSCKASGYTFTSYYMHWVRQAPGQGLEWMGIINPSGGSTSYAQKFQGRVTMTRDTSTSTVYMELSSLRSEDTAVYYCAREGYSSSWYDYFDYWGQGTLVTVSS
VL: not shown
notes: Germline Fab made in E. coli; VH was cloned into Plasmid A (CH1, His6 and Flag tags) and the kappa VL into Plasmid C (kappa CL)
Regarding B2, the ECL signal in assay [9] turned out to be 528; in assay [10] it was 7880; in assay [11] it was 385; in assay [12] it was 563.

B3: Fab VH5-51_IGHD5-18*01>3_IGHJ4*01 G100K/G104T & V3-4_IGLJ1*01 (Fab, V domains shown)
VH: EVQLVQSGAEVKKPGESLKISCKGSGYSFTSYWIGWVRQMPGKGLEWMGIIYPGDSDTRYSPSFQGQVTISADKSISTAYLQWSSLKASDTAMYYCARRKYSYTYDYFDYWGQGTLVTVSS
VL: QTVVTQEPSFSVSPGGTVTLTCGLSSGSVSTSYYPSWYQQTPGQAPRTLIYSTNTRSSGVPDRFSGSILGNKAALTITGAQADDESDYYCVLYMGSGISYVFGTGTKVTVL
notes: Tested as a Fab; The constant parts are the same as for the parent Fab (CH1 with His6/Flag tags, lambda CL); also called KT double mutant; H:KT
Consider B3, for which the ECL signal/noise ratio in assay [13] was 0.9; in assay [14] it was 1.1; in assay [15], 1.2; in assay [16], 1.1; in assay [17] it was 1.1; in assay [18], 1.1. The ECL signal/noise ratio in [19] worked out at 1.2.

These data come from patent US20120316071A1 (published 2012).
